Measured values reported in patent US20240327455A1, “HIGH-AFFINITY SUPRAMOLECULAR POLYMERS FOR BINDING-TRIGGERED ANTIBODY PRECIPITATION AND PURIFICATION” (The Johns Hopkins University, priority 2021, published 2024).
Converted amounts (≈) assume the structure as drawn. Values belong to the molecule of their own block, whether it stands above or below them. Peptide text beside a SMILES is read from it. * marks the point of attachment. Lauroyl = CCCCCCCCCCCC(=O)*

What was measured:
[1] = Solubility limit of filler molecule in PBS; format: physicochemical; settings: in PBS (pH 7.4)
[2] = Self-assembly and TEM imaging (filament diameter); format: physicochemical; settings: self-assembled in PBS pH 7.4; mean±SD (n=30)
Procedure: Self-Assembly, Co-Assembly, and TEM Imaging. For self-assembly, filler or ligand molecules were dissolved in PBS (20 mM sodium phosphate, 150 mM sodium chloride, pH 7.4) to reach a final concentration of 2.5 mM or 400 μM, respectively, and aged for 24 hours at room temperature. To construct co-assembled IFs, filler and ligand molecules were pretreated with hexafluoroisopropanol (HFIP) to eliminate any pre-existing nanostructures that could be possibly formed during the synthesis and purification process. After HFIP evaporation, filler and ligand molecules were dissolved in PBS (20 mM sodium phosphate, 150 mM sodium chloride, pH 7.4) to reach desired concentrations and aged for 24 hours at room temperature. 10 μl stock of each sample solution was then spotted on carbon film coated copper grids with 400 square mesh (Electron Microscopy Sciences, Hatfield, PA, USA) and the excess was removed with filter paper to leave a thin film of sample on the grid. After letting the sample dry for 5 minutes, 10 μl 2% uranyl acetate was added to the sample grid, and the excess was removed after 30 seconds. All samples were dried for at least three hours before imaging. Bright-field TEM imaging was performed on a FEI Tecnai 12 TWIN Transmission Electron Microscope and all TEM images were required by a SIS Megaview III wide-angle CCD camera.

[3] = CMC measurement with Nile Red; format: physicochemical; settings: ligand molecules in PBS
Procedure: CMC measurement. The CMCs of the ligand molecules in PBS were determined using Nile Red, a hydrophobic dye that undergoes changes in both fluorescence intensity and emission wavelength (a blue-shift) upon partition into the hydrophobic domains of supramolecular assemblies. Nile Red was initially dissolved in acetone at 20 μM and 10 μl aliquots were loaded into several centrifuge tubes. After the acetone evaporated under room temperature. 500 μl fresh ligand solutions in PBS at various concentrations were added into the centrifuge tubes containing dry Nile Red and aged overnight for assembly. Fluorescent spectra of Nile Red were then monitored by a Fluorolog fluorometer (Jobin Yvon, Edison, NJ, USA) with fixed excitation wavelength at 560 nm; emission spectra were monitored at 580-720 nm. The ratio of the emission intensity at 635 nm (emission maximum of Nile red in a hydrophobic environment) to that at 660 nm (emission maximum of Nile red in an aqueous environment) was then plotted against the tested concentrations to obtain a transition curve, and the CMC value was determined by the intersection of the two fitting lines.

pure mAb1 [4] = molecular target: T1, pure mAb1 (Homo sapiens, UniProt P01857); assay: Sequential precipitation and mAb elution using IF solutions
T1 construct: host or cells: CHO is stated only for the clarified harvest
Procedure: Sequential Precipitation and mAb Elution Using IF Solutions. Three IF stock solutions. IF1 (2.5 mM filler, 250 μM O16). IF2 (2.5 mM filler, 750 μM O16), and IF3 (2.5 mM filler. 200 μM O16), were prepared one day before the precipitation experiment. Pure mAb1 from a concentrated solution (448 μM, 64.5 g/L) was added into 100 uL IF1 and 100 uL IF2 to reach a desired final concentration of 40 μM and 80 μM, respectively. After a 4-hour incubation, the samples were then centrifuged at 15000 rpm for 15 minutes and the supernatant was transferred to 100 uL IF3 for another 4-hour incubation and subsequent centrifugation. 200 μL PBS and 400 μL elution buffer (40 mM sodium acetate. pH 3.7) were then used to wash and resuspend the precipitates from the two precipitation steps. The supernatant from each precipitation step, wash step, and elution step were analyzed by ProA-HPLC (POROS™ A 20 μm Column, Stainless Steel, 2.1×30 mm, 0.1 mL) to determine mAb concentration.

[5] = molecular target: T2, mAb1 in clarified CHO cell culture harvest (Homo sapiens, UniProt P01857); assay: Purification of mAb1 from clarified cell culture harvest; settings: sequential precipitation, no salt
T2 construct: host or cells: Chinese hamster ovary (CHO) cells; harvest clarified by depth filtration
Procedure: Purification of mAb1 from Clarified Cell Culture Harvest. mAb1 at clarified bulk state were incubated with optimized IFs (100 μL) at a concentration of 40 μM or 80 μM for 30 minutes. Same procedures were performed to precipitate mAb1 and obtain the centrifuged pellets. The pellets were then resuspended in […] (400 μL, 40 mM sodium acetate. pH 3.7) and transferred to a dialysis tube (Pur-A-Lyzer Maxi, 50 kDa cut-off molecular weight. Sigma-Aldrich. St. Louis, MO. USA). The resuspended solution was then dialyzed against 40 mM sodium acetate (1 L) at pH 3.7 for 24 hours with dialysis buffer replaced three times. The protein, filler, and ligand concentrations were determined by ProA-HPLC and RP-UPLC.

pure mAb1 [6] = molecular target: T1, pure mAb1; assay: mAb precipitation experiment with co-assembled IFs; settings: 40 μM mAb1, 2.5 mM filler
pure mAb1 [7] = molecular target: T1, pure mAb1; assay: mAb precipitation experiment with co-assembled IFs; settings: for mAb precipitation yield at optimal O16 concentration: 2.5 mM filler
Procedure: mAb Precipitation Experiment. IF stock solutions at desired filler and ligand concentrations were prepared one day before the precipitation experiment. In experimental groups, pure mAb1 from a concentrated solution (448 μM, 64.5 g/L) was then added into 100 μL IF solutions to reach a desired final concentration and incubated for 30 minutes at room temperature. The solution was then centrifuged at 15000 rpm for 15 minutes. For the 1M salt group, ammonium sulfate was added to the mAb-IF mixtures to reach a final concentration of 1M and incubated for another 30 minutes before centrifugation. The supernatant was taken out and analyzed by ProA-HPLC (POROS™ A 20 μm Column, Stainless Steel, 2.1×30 mm, 0.1 mL) to determine the protein concentrations. The precipitated amount of each species was calculated by subtracting the amount in the supernatant from the amount added. The precipitation yield was calculated by dividing […].

pure mAb1 [8] = molecular target: T1, pure mAb1; assay: Sequential precipitation of high mAb titers using lyophilized IFs; settings: lyophilized IFs (2.5 mM filler, 400 μM O16); for mAb precipitation yield after six precipitation steps: no salt
Procedure: Sequential Precipitation of High mAb Titers Using Lyophilized IFs. Six lyophilized IF stock powders (IF4-IF9) were prepared such that upon dissolution in 100 μL, the concentrations of the filler and O16 would be 2.5 mM and 400 μM, respectively. Lyophilized IF powders were prepared one day before the precipitation experiment. The IFs were allowed to co-assemble in water for 24 hours prior to lyophilization. Pure mAb1 from concentrated stock solutions of either (146 μM, 21 g/L) or (215 μM, 31 g/L) was added to the lyophilized IF4. After a 1-hour incubation, the samples were centrifuged at 15000 rpm for 15 minutes. Following centrifugation, the volume of supernatant was measured and fresh PBS was added until a final supernatant volume of 100 μL was reached. The 100 μL supernatant following the first precipitation step was then added to the next lyophilized IF stock powder (IF5) and allowed to incubate for another hour. This process of incubation, centrifugation, and supernatant transfer was repeated until all six lyophilized IFs (IF4-IF9) had been used for mAb precipitation. The supernatants after the first, third, and sixth precipitation steps were analyzed using ProA-HPLC to measure the cumulative amount of mAbs remaining throughout the precipitation process.

mAb1 = molecular target: T3, mAb1 (Homo sapiens, UniProt P01857); assay: Turbidity of mAb1-IF mixture (absorbance at 350 nm); settings: 40 μM mAb1, 2.5 mM filler, 250 μM O16, absorbance at 350 nm
T3 construct: host or cells: CHO is stated only for the clarified harvest
T3 sequence (P01857 1-330 isoform P01857-1): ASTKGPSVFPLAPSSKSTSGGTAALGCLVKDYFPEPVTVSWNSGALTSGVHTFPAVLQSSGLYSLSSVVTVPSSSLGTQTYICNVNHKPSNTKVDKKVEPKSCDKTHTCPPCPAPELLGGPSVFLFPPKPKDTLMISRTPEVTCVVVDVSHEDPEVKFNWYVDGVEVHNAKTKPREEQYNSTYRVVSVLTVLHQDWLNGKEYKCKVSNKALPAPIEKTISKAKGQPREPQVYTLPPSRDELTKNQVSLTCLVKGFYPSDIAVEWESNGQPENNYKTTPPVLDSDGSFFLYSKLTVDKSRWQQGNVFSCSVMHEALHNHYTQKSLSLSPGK

T1 sequence (P01857 1-330 isoform P01857-1): as above
T2 sequence (P01857 1-330 isoform P01857-1): as above

Molecule: O12: ligand molecule C12-VVKK[Linker]Z33, linker OEG12
diameter of self-assembled filamentous structures (TEM) [2]: 13.6±1.2 nm
CMC [3]: 8.5 µM

Molecule: P2000: ligand molecule C12-VVKK[Linker]Z33, linker PEG2000
diameter of self-assembled filamentous structures (TEM) [2]: 19.3±2.0 nm
CMC [3]: 8.1 µM

Now from value to molecule, other results behind:

solubility [1]: 2500 µM (≈ 1640 µg/mL)
Molecule: CCCCCCCCCCCC(=O)N[C@H](C(=O)N[C@H](C(=O)N[C@@H](CCC(=O)O)C(=O)N[C@@H](CCC(=O)O)C(=O)O)C(C)C)C(C)C [C12-VVEE] (Lauroyl-VVEE-OH; N-terminus and C-terminus assumed)

mAb1 precipitated in first precipitation (pure mAb1 [4]; 40 μM pure mAb1, IFs with 250 μM O16, no salt): More than 82%
elution yield (pure mAb1 [4]; 40 μM pure mAb1, elution buffer 40 mM sodium acetate pH 3.7): ~88%
final precipitation yield after two sequential precipitations (pure mAb1 [4]; 40 μM pure mAb1, second step IFs with 200 μM O16, no salt): greater than 97%
mAb1 precipitated in first precipitation (pure mAb1 [4]; 80 μM pure mAb1, IFs with 750 μM O16, no salt): More than 82%
elution yield (pure mAb1 [4]; 80 μM pure mAb1, elution buffer 40 mM sodium acetate pH 3.7): ~88%
final precipitation yield after two sequential precipitations (pure mAb1 [4]; 80 μM pure mAb1, second step IFs with 200 μM O16, no salt): greater than 97%
mAb1 precipitation yield from clarified cell culture harvest ([5]; 40 μM mAb1 CB): more than 86%
mAb1 precipitation yield from clarified cell culture harvest ([5]; 80 μM mAb1 CB): > 90%
mAb precipitation yield (pure mAb1 [6]; 250 μM O16, binding time 2 hours): 88%
mAb precipitation yield (pure mAb1 [6]; 250 μM O16, binding time 24 hours): 92%
mAb precipitation yield (pure mAb1 [7]; 40 μM mAb1, 2.5 mM filler, 250 μM O16, binding time 30 minutes): 83%
mAb precipitation yield at optimal O16 concentration (pure mAb1 [7]; 40 μM mAb1, no salt): around 85%
mAb precipitation yield (pure mAb1 [7]; 40 μM mAb1, optimal IFs (2.5 mM filler, 250 μM O16), 1 M salt): More than 99%
mAb precipitation yield (pure mAb1 [7]; 40 μM mAb1, optimal IFs (2.5 mM filler, 250 μM O16), no salt): 88%
mAb precipitation yield at optimal O16 concentration (pure mAb1 [7]; 80 μM mAb1, no salt): around 85%
mAb precipitation yield at optimal O16 concentration (pure mAb1 [7]; 133 μM mAb1, no salt): about 65%
O16 concentration giving the best mAb precipitation yield (pure mAb1 [7]; 100 μL mAb1 at 10 μM and 20 μM with 100 μL IFs): 200 µM
mAb precipitation yield after six precipitation steps (pure mAb1 [8]; 21 mg/mL pure mAb): 96%
mAb precipitation yield after six precipitation steps (pure mAb1 [8]; 31 mg/ml pure mAb): 98%
mAb precipitation yield after first precipitation step (pure mAb1 [8]; 21 or 31 mg/mL mAb): around 20%
mAb precipitation yield after three precipitation steps (pure mAb1 [8]; 21 or 31 mg/mL mAb): ~80%
time to turbidity plateau (mAb1): ≤ 30 min
Molecule: O16: ligand molecule C12-VVKK[Linker]Z33, linker OEG16
diameter of self-assembled filamentous structures (TEM) [2]: 14.9±1.3 nm
CMC [3]: 10.5 µM

yield discrepancy between 1M salt and no salt groups (pure mAb1 [7]; 20 μM mAb1, 2.5 mM filler, 100 μM ligand): less than 10%
Molecule: O36: ligand molecule C12-VVKK[Linker]Z33, linker OEG36
diameter of self-assembled filamentous structures (TEM) [2]: 18.5±1.8 nm
CMC [3]: 9.1 µM
mAb precipitation yield, ranking among ligands (pure mAb1 [7]; all conditions (20 and 40 μM mAb1, 1 M salt or no salt)): best mAb precipitation yields in all conditions
